What all share (assay): cell-based or functional assay
Assay [1] has as its target chymotrypsins in unfractionated gut extracts from H. punctigera larvae.
In assay [2] the target is Bovine chymotrypsin (bovine) (UniProt P00766).
The target in assay [3] is NaPI-insensitive chymotrypsin from H. punctigera (HpCh5), native enzyme from the larval gut (Helicoverpa punctigera).
Chain of NaPI-insensitive chymotrypsin from H. punctigera (HpCh5), native enzyme from the larval gut (Helicoverpa punctigera) (chain, as listed by the source limits assumed): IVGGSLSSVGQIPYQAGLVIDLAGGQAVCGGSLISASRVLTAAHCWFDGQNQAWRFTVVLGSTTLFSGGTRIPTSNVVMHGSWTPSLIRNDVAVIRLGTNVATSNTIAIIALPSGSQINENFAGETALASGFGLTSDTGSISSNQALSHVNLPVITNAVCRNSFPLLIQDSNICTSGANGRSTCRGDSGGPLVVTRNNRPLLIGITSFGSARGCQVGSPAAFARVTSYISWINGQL

Chain of lima bean trypsin inhibitor (Sigma) (P01056 whole entry): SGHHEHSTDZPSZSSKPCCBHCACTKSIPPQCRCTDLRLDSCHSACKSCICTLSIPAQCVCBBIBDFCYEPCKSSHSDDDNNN
Chain of soybean Bowman Birk inhibitor (P01055 40-110 limits assumed): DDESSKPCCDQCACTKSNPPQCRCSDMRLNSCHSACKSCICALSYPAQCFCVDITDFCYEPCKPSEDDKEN
Chain of soybean trypsin inhibitor (P01070 25-205): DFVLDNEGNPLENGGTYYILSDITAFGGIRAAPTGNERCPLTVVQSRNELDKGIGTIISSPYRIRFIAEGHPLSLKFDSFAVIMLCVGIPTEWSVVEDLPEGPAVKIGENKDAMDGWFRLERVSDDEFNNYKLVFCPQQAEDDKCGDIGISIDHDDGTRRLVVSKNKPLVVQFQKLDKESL

“C1 monomer, chymotrypsin inhibitor from the N. alata proteinase inhibitor precursor, HPLC purified” displayed a degree of inhibition of gut chymotrypsin activity of control insects, 80 nM C1 (FIG. 2F) in assay [1] of 75%.

Take “lima bean trypsin inhibitor (Sigma) (from UniProt P01056 1-83)”: in assay [2], the % Inhibition of chymotrypsin activity at the maximum concentration tested (5 µM) stood at 100% and the IC50 of inhibition of chymotrypsin activity worked out at 200 nM. For the same substance, in assay [3], the % Inhibition of chymotrypsin activity at the maximum concentration tested (>20 µM) came out at 89% and the IC50 of inhibition of chymotrypsin activity came out at 3000 nM.

“soybean Bowman Birk inhibitor (from UniProt P01055 40-110)”: in assay [2], the % Inhibition of chymotrypsin activity at the maximum concentration tested (5 µM) was 100% and the IC50 of inhibition of chymotrypsin activity was determined as 60 nM. In assay [3], the % Inhibition of chymotrypsin activity at the maximum concentration tested (10 µM) was found to be 100% and the IC50 of inhibition of chymotrypsin activity was 240 nM.

Take “soybean trypsin inhibitor (from UniProt P01070 25-205)”: the % Inhibition of chymotrypsin activity at the maximum concentration tested (>20 µM) in assay [2] was determined as 94%; in assay [3], 82%. Further, the IC50 of inhibition of chymotrypsin activity was found to be 13000 nM in assay [2] and 33000 nM in assay [3].
